Reference: paper PMC4310620

Assays:
Experiment in all cases: purified protein
Assay type in all cases: biochemical, Chromohalobacter israelensis
purified protein [1] = substrate: NCCO; settings: 50 mM L-glutamate, 5 mM ATP, 15 mM MgCl2, pH 7.9, 25 °C
purified protein [2] = substrate: C[C@H](N)CO; settings: 50 mM L-glutamate, 5 mM ATP, 15 mM MgCl2, pH 7.9, 25 °C
purified protein [3] = substrate: N[C@@H](CCC(=O)O)C(=O)O; settings: 20 mM ethanolamine, 5 mM ATP, 15 mM MgCl2, pH 7.9, 25 °C

B1: Csal_0679 (Chromohalobacter israelensis DSM 3043) (protein)
chain: MTNTLALDDLKTRVESGEIDTVLVCIVDMQGRLMGKRLHARHFVDHGWEETHCCNYLLATDLEMATPGGYASTSWQAGYGDYIMKPDLATLRCVPWLEGTAMVLCDLLDHRTHAEVPHAPRAILKRQLARLEAMGLEAIMATELEFFLFEKSLDEIRKGRFRDLQPISGYNEDYHIFQTTKEEHVLRPLRNHLHAAGIPVEGTKGEAGAGQEELNIRCAKALDTADYHTIAKHATKEIAWQQGRAVTFLSKWHHAHAGSSSHIHQSLWKQGLPAFHDERDALGMSALMKHYLAGLLKYAPDYTYFLAPYLNSYKRFQKGTFAPTRTVWSVDNRTAGFRLCAEGTRAVRIECRIGGSDLNPYLAMAGQLAAGIKGIEECLALPPPAEGDTYEGGSGLIPQNLRDAMEALRGSTMLREAMGEDVVDHYVRAAEVELEDFQRVVSDYEVARGFERC
Km (purified protein [1]): 34 ± 4 µM
kcat (purified protein [1]): 0.38 ± 0.009 s⁻¹
kcat/Km (purified protein [1]): 11000 M⁻¹ s⁻¹
Km (purified protein [2]): 100 ± 10 µM
kcat (purified protein [2]): 0.35 ± 0.01 s⁻¹
kcat/Km (purified protein [2]): 3400 M⁻¹ s⁻¹
Km (purified protein [3]): 7800 ± 1000 µM
kcat (purified protein [3]): 0.4 ± 0.02 s⁻¹
kcat/Km (purified protein [3]): 51 M⁻¹ s⁻¹
